Publication PMC4376941, “The Gene YALI0E20207g from Yarrowia lipolytica Encodes an N-Acetylglucosamine Kinase Implicated in the Regulated Expression of the Genes from the N-Acetylglucosamine Assimilatory Pathway” (PLoS ONE, 2015)

Substrate: Nc1ncnc2c1ncn2[C@@H]1O[C@H](COP(=O)(O)OP(=O)(O)OP(=O)(O)O)[C@@H](O)[C@H]1O
Assay: purified protein
Format: biochemical, Yarrowia lipolytica
Conditions: 4 mM NAGA, 0.1 M Tris-HCl pH 7.5, 30 °C, mean of two preparations

B1: YlNag5 (YALI0E20207p), N-acetylglucosamine (NAGA) kinase (Yarrowia lipolytica CLIB122) (protein)
chain: MSMGDDDRAYHHQMSVIVTAANANLPGHGKGPLVSVSSELLTKESHLMYDFERYVARNPSRFNQKVLDNLRIHHTYTRSSLDTLVNEFLAEITPACANRDAPSMLPSKMGSLPNDSLTGSVLSIDIGGSTLRGSMVDLEKMTVTDSVQHLIPDTVKNYSGSDFFDWIVERIMPLVKDCTATIIPIGLSWSFPIFQPHISSGLIQTMGKGYGVADEIINQDLKELFETHFASHGKTVEVGAILNDSVASLVAANYISNAPLCLILGTGINVSALIPKDQLKKTEQDQDKYIVNCEASLFGQCVSKTCWDLELDQALERPGFQPLESLSSGRYLGEICRLILRDLSKTGFLSRPDVGPYELTTAEVADLETADSGELDYVQDIILATSDRSAALASAFITAIYKLTGSDCESPSIAYDGTMVQKYPNFRPRMQQRLREQGLNVTFVAVEEGTVYGSAIACASQLSQ
notes: N-terminal GST fusion (pGEX-4T-2, plasmid pCL151), full-length ORF, expressed in E. coli BL21(DE3), glutathione-Sepharose eluted, tag not reported cut
B1 showed a Km of 1000 µM.
